The values below come from patent publication US20240174750A1 (VIRTUOSO BINCO, published 2024).

Sequences and labels used below:
T1: extracellular domain (ECD) of cyno CD47 (4aa-126aa) with C-terminal 6xHis tag (cynomolgus monkey, UniProt Q08722 19-140 (human entry), limits assumed)
T1 construct: also called cynomolgus monkey CD47
T1 chain: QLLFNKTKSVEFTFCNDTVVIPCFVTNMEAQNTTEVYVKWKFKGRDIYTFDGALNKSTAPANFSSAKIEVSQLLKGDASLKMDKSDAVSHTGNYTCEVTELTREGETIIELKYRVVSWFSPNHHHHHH

B1: hu.18B9.3i HC_D95A (antibody, name in Kabat numbering, V domains shown)
VH: EVQLVESGGGLVQPGGSLRLSCAASGFSFNSGYMSWVRQAPGKGLEWIASIYAGSSGKTYYADWAKGRFTISKTSSKTTVYLQMNSLRAEDTAVYYCARASGGTYYTDYLYLWGQGTLVTVSS
VL: DIQMTQSPSSLSASVGDRVTITCRASEGISSYLSWYQQKPGKAPKLLIYKASTLTSGVPSRFSGSGSGTDFTLTISSLQPEDFATYYCQSTYGSSGSSGYGAAFGGGTKVEIK
notes: Alanine scan variant of hu.18B9.3i; Kabat numbering
B2: hu.18B9.3i HC_D100c_A (antibody, V domains shown)
VH: B1 VH with A100D, D108A
VL: B1 VL
notes: as for B1
B3: hu.18B9.3i HC_Y100d_A (antibody, V domains shown)
VH: B1 VH with A100D, Y109A
VL: B1 VL
notes: as for B1
B4: hu.18B9.3i HC_G98A (antibody, name in Kabat numbering, V domains shown)
VH: B1 VH with A100D, G103A
VL: B1 VL
notes: as for B1
B5: hu.18B9.3i HC_Y101A (antibody, name in Kabat numbering, V domains shown)
VH: B1 VH with A100D, Y111A
VL: B1 VL
notes: as for B1
B6: hu.18B9.3i HC_G97A (antibody, name in Kabat numbering, V domains shown)
VH: B1 VH with A100D, G102A
VL: B1 VL
notes: as for B1
B7: M.1D15E11 (antibody, human IgG1, kappa, V domains shown)
VH: EVQLQQSGPELVKPGAPVKMSCKASGYTFTSYVMHWVKQKPGQGLEWIGYIDPYNDGTKYNEKFKGKATLTSDKSSSTAYMELSSLTSEDSAVYYCSRGGMARRSFDYWGQGTTLTVSS
VL: DIQMTQSPASQSASLGESVTITCLASQTIGTWLTWYQQKPGKSPQLLIYAATTLADGVPSRFSGSGSGTKFSFKISSLQAEDFVSYYCQQLYSTPWTFGGGTKLEIKR
notes: Chimeric: mouse variable domains, human IgG1 and human kappa constant regions; also called Chimeric antibody 1D15E11
B8: R.18B9 (antibody, human IgG1, kappa, V domains shown)
VH: QSLEESGGDLVKPGASLTLTCKASGFSFNSGYMCWVRQAPGKGLEWIACIYAGSSGKTYYASWATGRFTISKTSSTTVTLQMTSLTVADTATYFCARDDGGTYYTDYLYLWGPGTLVTVSS
VL: DVVMTQTPASVEAAVGGTVTIKCQASEGISSYLSWYQQKPGQPPKLLIYKASTLTSGVPSRFKGSGSGTDFTLTISDLESADAATYYCQCTYGSSGSSGYGAAFGGGTEVVVKR
notes: Chimeric: rabbit variable domains, human IgG1 and human kappa constant regions; also called Chimeric antibody 18B9
B9: R.15G10 (antibody, human IgG1, kappa, V domains shown)
VH: QSLEESGGRLVTPGTPLTLTCTASGFTISSYHMNWVRQAPGEGLEWIGIIYVGSGNADYASWAKGRFTISKASTTVDLKITSPTTEDTATYFCARGPTNTYPTYFNLWGPGTLVTVSS
VL: AFELTQTPSSVEAAVGGTVTIKCQASRSITSYLAWYQHKPGQPPTLLIYAASNVASGVSSRFKGSRSGTEYTLTISDLESADAATYYCQSYYAISTNTFGGGTEVVVKR
notes: Chimeric: rabbit variable domains, human IgG1 and human kappa constant regions
B10: M.69H1H9 (antibody, human IgG1, kappa, V domains shown)
VH: EVQLQQSGPELVKPGASVKMSCKTSGYTFTEYTIHWVKQSHEKSLEWIGSINPNNGLFRYNQKFKGKATLTVDKSSSTAYMELRSLTSEDSAVYYCARDYGFGYSDYWGQGTTLTVSS
VL: DIQMIQSPSSMFASLGDRVSLSCRASQGIRGNLDWYQQKPGGTIKLLIYSTSNLNSGVPSRFSGSGSGSDYSLTISSLESEDFADYYCLQRNAFPWTFGGGTKLEIKR
notes: Chimeric: mouse variable domains, human IgG1 and human kappa constant regions
B11: R.13A2 (antibody, human IgG1, kappa, V domains shown)
VH: QSLEESGGDLVKPGASLTVTCTASGFSFSSYYYVCWVRQAPGKGLEWIACIYAGSSGDTYYASWAKGRFTISKTSSTTVTLQMTSLTAADTATYFCARGYTGYSYQFNFWGPGTLVTVSS
VL: DVVMTQTPASVEAAVGGTVTIKCQASQSISNELSWYQQKPGQPPKLLIYRASTLESGVPSRFKGSGSGTEFTLTISDLESADAATYYCQCTYITYGNAFGGGTEVVVKR
notes: as for B9
B12: R.9B11 (antibody, human IgG1, kappa, V domains shown)
VH: QEQLEESGGDLVKPEGSLTLTCTASGFSFSSYWMAWVRQAPGKGLEWIACIYIGSGSGTTYYASWAKGRFTISKTSSTTVTLQMTSLTAADTAIYFCARWAGSDGHFTLWGPGTLVTVSL
VL: ALVMTQTPASVEAAVGGTVTINCQASQSINNLLAWYQQKPGQRPKLLIYDASDLASGVSSRFKGSGSGTEYTLTISGVQSADAATYYCQGYFYGSSVDLVFGGGTEVVVKR
notes: as for B9
B13: M.95D4A11 (antibody, human IgG1, kappa, V domains shown)
VH: QVQLQQPGAELVRPGASVKLSCKASGYTFTSYWMNWVKQRPEQGLEWIGSIDPYDSETHYNQKFKDKAILTVDKSSSTAYMQLSSLTSEDSAVYYCARGRGYAMDYWGQGTSVTVSS
VL: DIQMTQSPASLSASVGETVTITCRASGNIHNYLAWYQQKQGKSPQLLVYNAKTLADGVPSRFSGSGSGTQYSLKINSLQPEDFGSYYCQHFWSTPPTFGGGTKLEIKR
notes: as for B10
B14: R.14G4 (antibody, human IgG1, kappa, V domains shown)
VH: QEQLKESGGGLVTPGGTLTLTCTASGFTITSYHMCWVRQAPGKGLEWIGCIYPNNGFTWYASWAKGRFTISKTSSTTVDLKMTSPTTEEMATYFCARGSGNSYNQLDLWGQGTLVTVSS
VL: AIVMTQTPASVSATLGGSVTINCQSSESVYRDNCLGWFQQKPGQPPKLLIYKASTLASGVPSRFKGSGSGTQFTLTISDVVSDDAATYYCAGYKSTITDGTAFGGGTEVVVKR
notes: as for B9
B15: R.1H3 (antibody, human IgG1, kappa, V domains shown)
VH: QSLEESGGDLVKPGASLTLTCTASGFSFSSGYYMCWVRQAPGKGLEWIACIYMRSGDTYLASWAKGQFTISKTSSTTVTLQMTSLTAADTATYFCGRGGTSYALNLWGQGTLVTVSS
VL: DVVMTQTPASVSEPVGGTVTINCQASQSISNECSWYQQKPGQPPKLLIYRASTLESGVPSRFSGSGSGTEFTLTISDLESADAATYYCQSTYYGTTGNTFGGGTEVVVKR
notes: as for B9
B16: hu.1D15E11-V1 (antibody, human IgG1, kappa, V domains shown)
VH: EVQLVQSGAEVKKPGASVKVSCKASGYTFTSYVMHWVRQAPGQRLEWMGYIDPYNEGTKYNEKFKGRVTITRDTSASTAYMELSSLRSEDTAVYYCSRGGMARRSFDYWGQGTLVTVSS
VL: DIQMTQSPSSLSASVGDRVTITCLASQTIGTWLTWYQQKPGKAPKLLIYAATTLAEGVPSRFSGSGSGTDFTLTISSLQPEDFATYYCQQLYSTPWTFGGGTKVEIKR
notes: Humanised variant of 1D15E11; also called hu.1D15E11-Vi; hu.1D15E11 variants
B17: hu.1D15E11-V2 (antibody, human IgG1, kappa, V domains shown)
VH: B16 VH with R72S
VL: B16 VL
notes: Humanised variant of 1D15E11; also called hu.1D15E11 variants
B18: hu.1D15E11-V3 (antibody, human IgG1, kappa, V domains shown)
VH: B16 VH with M101I
VL: B16 VL
notes: as for B17
B19: hu.1D15E11-V4 (antibody, human IgG1, kappa, V domains shown)
VH: B16 VH with M101V
VL: B16 VL
notes: as for B17

Where a chain is given by its changes, count along the chain named.

The first experiment addresses T2, extracellular domain (ECD) of human CD47 (19aa-139aa) with C-terminal 6xHis tag (human, UniProt Q08722 19-139).
T2 construct: also called recombinant CD47; recombinant human CD47
As to the kind of experiment: ELISA on recombinant human CD47; legend: NB: not bound.
Turning to B1, the binding result was “no binding”.

B2: the binding result is “no binding”.

As for B3, the binding result is given as “no binding”.

B4: the binding result was “no binding”.

Turning to B5, the binding result is listed as “no binding”.

In the case of B6, the binding result is recorded as “no binding”.

Another experiment concerns the target T2, extracellular domain (ECD) of human …. As to the kind of experiment: SPR, Biacore 8K, antibody captured by anti-human Fc, monomeric CD47 ECD injected, 25 C, 1:1 Langmuir.
Experimental: Furthermore, binding kinetics measurements of the anti-CD47 antibodies were not affected by antibody valency in the SPR assays because antibodies were immobilized and challenged with monomeric antigens. SPR was performed on a Biacore 8K instrument (GE Healthcare). Antibodies were captured on Biacore Series S CM5 sensor chips coated with a monoclonal mouse anti-human IgG (Fc) antibody (GE Healthcare human antibody capture kit). Serial 3-fold dilutions of CD47 ECD antigen were injected at a flow rate of 30 μL/min. Each sample was analyzed with 1 min association and 10 min dissociation at room temperature (25° C.). After each injection, the chip was regenerated using 3M MgCl₂. A 1:1 Langmuir model of simultaneous fitting of kon and koff was used for kinetics analysis.
The molecule B7 gave a Kd of 1 to 10 nM.

Consider B8, for which the Kd lay within 10 to 100 nM.

The next experiment deals with T3, CD47 on the surface of CD47+ cells (human, UniProt Q08722 19-323).
T3 construct: whole, on cells; also called CD47+ cell lines; CD47 on Raji cells, HCT-15 cells, human red blood cells (RBCs), human platelets
Nature of the experiment: flow cytometry, competition with SIRPA-mIgG2a on CD47+ tumor cells; IC50 as grade, legend the 8th table, row 26.
Experimental: Tumor cells were harvested, centrifuged, and then resuspended in FACS buffer (PBS plus 2% FBS) at a concentration of 2×10⁶ cells/mL. 100 μL of the cell suspension was dispensed into each well of a 96-well plate. The plate was centrifuged for 5 min and 300×g, and the supernatants were discarded. […] After washing twice with FACS buffer, the plates were resuspended with 300 μL FACS buffer and analyzed by flow cytometry.
For B9, the IC50 was in the range of 0.1 to 1 nM.

The molecule B7 showed an IC50 of 0.1 to 1 nM.

In turn, B10 returned an IC50 of 0.1 to 1 nM.

With B11, the IC50 lay in the range of 0.1 to 1 nM.

B12 registered an IC50 of 1 to 5 nM.

For the molecule B13, the IC50 is 0.1 to 1 nM.

As for B14, the IC50 was 1 to 5 nM.

As to B15, the IC50 lay within 0.1 to 1 nM.

In turn, B8 displayed an IC50 of 0.1 to 1 nM.

The target in a further experiment is T3, CD47 on the surface of CD47+ cells. Nature of the experiment: flow cytometry on CD47+ cell lines; EC50 as grade, legend the 7th table, row 26.
Experimental: Antibody binding to CD47+ cell lines was quantified by flow cytometry. Harvested cells were centrifuged at 2000 rpm for 5 min, resuspended in 10-15 mL ice-cold culture medium, and then counted. Cells were resuspended in blocking buffer (PBS plus 2% FBS) at a concentration of 3×10⁶ cells/mL. 100 μL of the cell suspension was dispensed into each well of a 96-well plate. Purified antibodies were diluted to the desired concentrations with blocking buffer and 100 μL of diluted antibodies were added to the well and incubated for 1 hour at 4° C. The cells were then washed 3 times with PBS plus 2% FBS. […] The cells were then washed 3 times with 200 μL PBS by centrifuging at 2000 rpm for 5 min. After the last wash, the cells were resuspended in 300 μL cold PBS and analyzed on a FACSVerse™ (BD Biosciences) flow cytometer.
On to B9, for which the EC50 was in the range of 0.5 to 5 nM.

With B7, the EC50 was 0.1 to 0.5 nM.

Consider B10, for which the EC50 was in the range of 0.1 to 0.5 nM.

For B11, the EC50 was 0.5 to 5 nM.

Turning to B12, the EC50 lay in the range of 0.5 to 5 nM.

B13 displayed an EC50 of 0.1 to 0.5 nM.

Molecule B14 registered a concentration giving a half-maximal response (EC50) of over 5 nM.

B15 displayed a concentration giving a half-maximal response (EC50) of 0.1 to 0.5 nM.

Take B8: the EC50 lay within 0.5 to 5 nM.

A further experiment concerns the target T2, extracellular domain (ECD) of human …. Nature of the experiment: ELISA, coated recombinant CD47; EC50 as grade, legend the 6th table, row 26.
Experimental: A 96-well plate was coated overnight at 4° C. with 1 μg/ml recombinant CD47. After washing 3 times, the plate was blocked with 300 μL 1% BSA in PBST at 37° C. for 1 hour. Serially diluted antibodies were added and incubated at 37° C. for 1 hour. The plate was then washed 4 times with PBST and incubated with 1:5000 diluted 2nd antibody (Sigma, Cat #A0293) at 37° C. for 1 hour.
Turning to B9, the EC50 was 0.01 to 0.1 nM.

Turning to B7, the EC50 fell in the range of 0.01 to 0.1 nM.

On to B10, for which the EC50 fell in the range of 0.01 to 0.1 nM.

As to B11, the EC50 was over 0.5 nM.

Turning to B12, the EC50 was in the range of 0.01 to 0.1 nM.

Turning to B13, the concentration giving a half-maximal response (EC50) fell in the range of 0.01 to 0.1 nM.

As to B14, the EC50 was over 0.5 nM.

As for B15, the EC50 is over 0.5 nM.

Turning to B8, the concentration giving a half-maximal response (EC50) lay within 0.01 to 0.1 nM.

For another experiment the target is unchanged. As to the kind of experiment: ELISA, coated recombinant CD47, FIG. 4A-4B.
Experimental: (§1) A 96-well plate was coated overnight at 4° C. with 1 μg/mL recombinant CD47. After washing 3 times, the plate was blocked with 300 μL 100 BSA in PBST at 37° C. for 1 hour. Serially diluted antibodies were added and incubated at 37° C. for 1 hour. The plate was then washed 4 times with PBST and incubated with 1:5000 diluted peroxidase labeled goat anti-human IgG (Fab specific) secondary antibody (Sigma, Cat #A0293) for 1 hour at 37° C. The plate was washed again 4 times with PBST, incubated with 3,3′,5,5′-tetramethylbenzidine (TMB) substrate for 15 min at room temperature, terminated with 1N HCl, and then read at 450 nm.
Consider B16, for which the binding result was “binds”.

For B17, the binding result is recorded as “binds”.

On to B18, for which the binding result is “binds”.

With B19, the binding result was “binds”.

A further experiment addresses T1, extracellular domain (ECD) of cyno CD47 …. As to the kind of experiment: ELISA, coated recombinant CD47, FIG. 4A-4B.
Experimental: as §1
On to B16, for which the binding result is “binds”.

As for B17, the binding result is “binds”.

As for B18, the binding result is “binds”.

For B19, the binding result is “binds”.
